In data set [1] the target is TAMRA-TAX9 in complex with HLA-A*02:01 (hβ2m) (human | HTLV-1). The data set can be described thus: fluorescence polarisation. (In general: In fluorescence polarisation assays a small probe gives low polarisation when free and higher when bound to something large.)
The test system of data set [2] is HLA-A*02:01/hβ2m. The following applies: DSF, 7 μM HLA-A*02:01/hβ2m in complex with the peptide, 10× SYPRO orange, 1 °C/min, pH 7.2; n = 3 technical replicates. A general note: In DSF a fluorescence change marks the thermal transition of the protein.
Data set [3] concerns the target peptide-deficient (empty) HLA-A*02:01/hβ2m (human). Kind of data set: ITC. For orientation: Isothermal titration calorimetry measures the heat released or taken up as one component is titrated into another.
Data set [4] addresses T1, peptide-deficient HLA-A*02:01/hβ2m/TAPBPR^ΔG24-R36 complex (Homo sapiens, UniProt P04439, D140Y/D185E/D98H/E176V/E277Q/G131W/G231S/I119V/I121R/I166T/I218V/L300P/L318F/N151K/N90K/P208A/P217A/Q86G/Q94H/R138H/R169H/T345S).
T1 construct: DNA plasmid constructs encoding the luminal domain of human HLA-A*02:01 (heavy chain); made in house
The data set can be described thus: ITC, KD4: peptide titrated into empty HLA-A*02:01/TAPBPR^ΔG24-R36 complex with excess TAPBPR. It counts as binding. Conditions: ~150–200 μM peptide into ~15 μM peptide-deficient complex and 50 μM excess TAPBPR, pH 7.2, one-site fit, error from fit.

The target in data set [5] is T2, HLA-A*02:01/hβ2m (empty MHC-I released from TAPBPR^ΔG24-R36 complex) (Homo sapiens, UniProt P04439, D140Y/D185E/D98H/E176V/E277Q/G131W/G231S/I119V/I121R/I166T/I218V/L300P/L318F/N151K/N90K/P208A/P217A/Q86G/Q94H/R138H/R169H/T345S).
T2 construct: DNA plasmid constructs encoding the luminal domain of human HLA-A*02:01 (heavy chain); made in house
The data set can be described thus: ITC, KD2,app: peptide titrated into peptide-deficient HLA-A*02:01/hβ2m/TAPBPR^ΔG24-R36 complex, no excess TAPBPR. The data set is classed as binding. The following applies: ~50–100 μM peptide into ~15 μM peptide-deficient complex, pH 7.2, one-site fit, one technical replicate, error from fit.

Data set [6] deals with T3, peptide-deficient HLA-A*02:01/hβ2m/TAPBPR^WT complex (Homo sapiens, UniProt P04439, D140Y/D185E/D98H/E176V/E277Q/G131W/G231S/I119V/I121R/I166T/I218V/L300P/L318F/N151K/N90K/P208A/P217A/Q86G/Q94H/R138H/R169H/T345S).
T3 construct: DNA plasmid constructs encoding the luminal domain of human HLA-A*02:01 (heavy chain); made in house; TAPBPR: Drosophila S2 cells
Kind of data set: ITC, KD4: peptide titrated into empty HLA-A*02:01/TAPBPR^WT complex with excess TAPBPR. The data set is classed as binding. Conditions: ~150–200 μM peptide into ~15 μM peptide-deficient complex and 50 μM excess TAPBPR, pH 7.2, one-site fit, error from fit.

Data set [7] addresses T4, HLA-A*02:01/hβ2m (empty MHC-I released from TAPBPR^WT complex) (Homo sapiens, UniProt P04439, D140Y/D185E/D98H/E176V/E277Q/G131W/G231S/I119V/I121R/I166T/I218V/L300P/L318F/N151K/N90K/P208A/P217A/Q86G/Q94H/R138H/R169H/T345S).
T4 construct: DNA plasmid constructs encoding the luminal domain of human HLA-A*02:01 (heavy chain); made in house; TAPBPR: Drosophila S2 cells
Kind of data set: ITC, KD2,app: peptide titrated into peptide-deficient HLA-A*02:01/hβ2m/TAPBPR^WT complex, no excess TAPBPR. The data set is classed as binding. The following applies: ~50–100 μM peptide into ~15 μM peptide-deficient complex, 50 mM NaCl, 20 mM sodium phosphate pH 7.2, one-site fit, one technical replicate, error from fit.

The target of data set [8] is TAPBPR^WT (TAP-binding protein related, wild-type, luminal domain) (human). Kind of data set: ITC.
In data set [9] the target is TAPBPR^ΔG24-R36 (luminal domain, deletion of residues G24-R36) (human). The data set can be described thus: ITC.
For data set [10], the target named is TAX8/HLA-A*02:01/hβ2m. The data set can be described thus: FP, KD3: TAPBPR titrated into TAMRA-TAX9 and TAX8/HLA-A*02:01/hβ2m. The data set is classed as binding, human. The following applies: TAPBPR (0–80 μM) titrated into 1 nM TAMRA-TAX9 and 50 nM TAX8/HLA-A*02:01/hβ2m; 25 °C, pH 7.2, 0.05% tween-20; read-out: KD3 from FP.
Data set [11] deals with MHC-I. The following applies: read-out: estimated KD of the MHC-I/TAPBPR interaction; SPR experiments of an analogous system; cited from earlier work.
For data set [12], the target named is HLA-A*01:01 (Homo sapiens, UniProt P04439, A114D/A174V/A182V/D101N/D185E/E176A/E190D/L180R/Q94H/R68K/S129P/T187R/V100A/V91M/W191G). Conditions: yeast-displayed TAPBPR, flow cytometry.

“And” between values parts separate entries of the source, which are not always exact repeats. Equal entries are not always repeated.

“TAPBPR^ΔALAS (luminal domain, deletion of residues A29-S32) (domain or fragment)”: in [1], the Kd stood at 2000 nM.
As to LLFGGYPVYV [TAX10], the “Tm of pMHC-I complex” value in [2] is 58.9 °C.
“TAPBPR^WT (TAP-binding protein related, wild-type, luminal domain) (domain or fragment)”: the Kd in data set [3] was 37.4 nM and 30.6 nM and 38.8 nM; in data set [1] it was 2000 nM.
For `CC[C@H](C)[C@H](NC(=O)[C@H](CCC(=O)O)NC(=O)[C@H](CC(C)C)NC(=O)[C@H](CC(C)C)NC(=O)[C@@H](N)CCCCN)C(=O)N1CCC[C@H]1C(=O)N[C@@H](CC(=O)O)C(=O)N1CCC[C@H]1C(=O)N[C@@H](CC(=O)O)C(=O)N[C@@H](CCCCN)C(=O)N[C@@H](CC(N)=O)C(=O)N[C@@H](Cc1c[nH]c2ccccc12)C(=O)N[C@@H](C)C(=O)N[C@H](C(=O)N[C@@H](CC(C)C)C(=O)O)[C@@H](C)O` [KLL15], the Kd in data set [4] came to 49500 ± 8600 nM; in [5], 334 ± 20 nM; in data set [6], 21600 ± 7000 nM; in data set [7] it was 383 ± 22 nM.
In general, stoichiometry N refers to a count of units in the complex or per binding partner. Consider “TAX9/HLA-A*02:01/hβ2m (from UniProt P61769 21-119) (peptide-MHC)”, for which, in data set [8], the Kd worked out at 1900 nM and the stoichiometry N was 1.02. The molecule also had a Kd in data set [9] of 1800 nM.
For LLFGGGGYPVYV [TAX12], the “Tm of pMHC-I complex” value in [2] was 53.2 °C.
“TAPBPR^ΔG24-R36 (luminal domain, deletion of residues G24-R36) (domain or fragment)”: the Kd in data set [3] was 13.9 nM and 11.1 nM and 14.2 nM; in [1] it was 2000 nM.

B1: TAPBPR WT: wild-type human TAPBPR; luminal domain from S2 cells in vitro, FLAG-tagged full length in Expi293F cells (protein, UniProt Q9BX59 19-468, looked up)
Tapasin-related protein: AETKPHPAEGQWRAVDVVLDCFLAKDGAHRGALASSEDRARASLVLKQVPVLDDGSLEDFTDFQGGTLAQDDPPIIFEASVDLVQIPQAEALLHADCSGKEVTCEISRYFLQMTETTVKTAAWFMANMQVSGGGPSISLVMKTPRVTKNEALWHPTLNLPLSPQGTVRTAVEFQVMTQTQSLSFLLGSSASLDCGFSMAPGLDLISVEWRLQHKGRGQLVYSWTAGQGQAVRKGATLEPAQLGMARDASLTLPGLTIQDEGTYICQITTSLYRAQQIIQLNIQASPKVRLSLANEALLPTLICDIAGYYPLDVVVTWTREELGGSPAQVSGASFSSLRQSVAGTYSISSSLTAEPGSAGATYTCQVTHISLEEPLGASTQVVPPERRTALGVIFASSLFLLALMFLGLQRRQAPTGLGLLQAERWETTSCADTQSSHLHEDRTARVSQPS
modifications: FLAG tag
As for B1, the figures for the Kd in data set [10] and in data set [11] were around 2000 nM and around 190 nM, respectively. The “binding of HLA-A*01:01 tetramers” value in [12] is given as “No binding”.

(Values after article PMC8154891, “TAPBPR promotes antigen loading on MHC-I molecules using a peptide trap” (Nature Communications, 2021).)
